In US6723699B1, “Treating disorders by application of insulin-like growth factors and analogs” (Cephalon, Inc., priority 1989, dated 2004):

How the values were obtained:
[1] = target: T1, IGF-I receptor (Rattus norvegicus, UniProt P24062); experiment: 125I-[Threonine59]IGF-I displacement (IGF-I receptor competition) assay, rat brain homogenate; type: binding
T1 construct: Brain tissue containing the cerebral cortex and cerebellum was dissected from adult Sprague-Dawley rats; from tissue; host or cells: adult Sprague-Dawley rat brain (cerebral cortex and cerebellum), homogenate pellet
T1 sequence (P24062 31-737 limits assumed): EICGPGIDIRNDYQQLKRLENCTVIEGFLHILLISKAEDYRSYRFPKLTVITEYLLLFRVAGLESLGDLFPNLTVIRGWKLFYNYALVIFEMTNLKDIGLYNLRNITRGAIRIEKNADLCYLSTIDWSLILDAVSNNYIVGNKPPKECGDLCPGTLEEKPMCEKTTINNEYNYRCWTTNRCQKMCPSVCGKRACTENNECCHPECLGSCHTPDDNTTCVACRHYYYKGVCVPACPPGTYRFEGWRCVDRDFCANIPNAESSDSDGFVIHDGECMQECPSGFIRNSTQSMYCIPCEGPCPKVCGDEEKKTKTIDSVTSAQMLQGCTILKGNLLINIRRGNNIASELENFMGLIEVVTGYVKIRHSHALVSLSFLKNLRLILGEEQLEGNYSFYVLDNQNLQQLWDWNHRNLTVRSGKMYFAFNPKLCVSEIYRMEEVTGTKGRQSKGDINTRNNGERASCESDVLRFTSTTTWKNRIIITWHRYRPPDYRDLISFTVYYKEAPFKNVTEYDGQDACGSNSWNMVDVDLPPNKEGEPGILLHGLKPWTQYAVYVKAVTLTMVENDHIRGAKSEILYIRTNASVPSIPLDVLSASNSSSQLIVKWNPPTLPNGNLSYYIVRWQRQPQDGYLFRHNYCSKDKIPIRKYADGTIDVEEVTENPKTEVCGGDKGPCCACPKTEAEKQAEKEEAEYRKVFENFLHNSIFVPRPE
T1 sequence (P24062 742-1370 partner limits assumed): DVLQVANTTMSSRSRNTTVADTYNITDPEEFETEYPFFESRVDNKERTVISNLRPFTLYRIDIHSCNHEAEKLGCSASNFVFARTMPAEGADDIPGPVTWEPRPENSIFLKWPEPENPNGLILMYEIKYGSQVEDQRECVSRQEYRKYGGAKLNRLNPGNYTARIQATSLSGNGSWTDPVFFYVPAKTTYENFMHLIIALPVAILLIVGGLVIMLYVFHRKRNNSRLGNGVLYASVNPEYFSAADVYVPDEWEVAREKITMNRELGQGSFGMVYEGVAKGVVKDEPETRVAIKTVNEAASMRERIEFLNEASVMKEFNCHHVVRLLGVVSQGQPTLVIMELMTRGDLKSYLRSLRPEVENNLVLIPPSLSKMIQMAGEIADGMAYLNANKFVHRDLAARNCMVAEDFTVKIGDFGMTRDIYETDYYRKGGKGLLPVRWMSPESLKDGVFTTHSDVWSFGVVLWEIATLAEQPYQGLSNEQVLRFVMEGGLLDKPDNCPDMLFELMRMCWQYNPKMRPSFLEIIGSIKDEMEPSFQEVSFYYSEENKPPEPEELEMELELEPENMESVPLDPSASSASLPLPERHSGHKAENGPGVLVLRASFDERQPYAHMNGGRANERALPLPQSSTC
Procedure: Brain tissue containing the cerebral cortex and cerebellum was dissected from adult Sprague-Dawley rats (Hilltop Lab Animals, Inc. Scottsdale, Pa.) and homogenized at low power for 5 minutes in a Brinkmann Polytron homogenizer (Westbury, N.Y.) containing 50 volumes of ice-cold buffer consisting of 10 mM HEPES, 0.5% BSA, 0.0125% NEM, 0.025% bacitracin, and 100 KIU/ml aprotinin, pH 7.6 (Bohannon et al., Endocrinology 119:943-945 (1986). Following homogenization, the tissue was collected after centrifugation at 7800×g for 20 minutes and resuspended in 10 volumes of assay buffer. Tissue (50 μl), 100 μl ^125I-[Threonine^59]IGF-I (20 pM), and 50 μl of buffer or peptides of varying concentration were added to 96-well plates and incubated on ice for 3 hours. After the incubation period, the tissue was collected on Whatman GF/C filters that had been pre-soaked in 0.01% polyethylenimine and washed four times with ice-cold assay buffer using a Brandel cell harvester (Gaithersburg, Md.). The filters were removed and the bound ^125I-[Threonine 59]IGF-I was measured using a Beckman Model 5500B Gamma Counter.

[2] = system: 14-day embryonic rat spinal cord neurons; experiment: Choline acetyltransferase activity in dissociated embryonic rat spinal cord neuron cultures; type: cell-based; conditions: 48 hr incubation
Procedure: The activity of IGF-I, IGF-II, or synthetic peptide derivatives of these molecules was assayed on dissociated cultures of 14-day embryonic rat spinal cord neurons. The spinal cord neurons were obtained from trypsin-dissociated spinal cords, plated, incubated with peptides, and subsequently (48 hr later) assayed for choline acetyltransferase activity as described by […] et al., Dev. Biol. 125:311-320 (1988).

[3] = system: brain ornithine decarboxylase; experiment: Induction of brain ornithine decarboxylase after intraventricular injection, adult rats; type: in vivo, rat; conditions: 6 hours, cerebral cortex, medial septum, hippocampus
Procedure: To determine whether the induction of brain ornithine decarboxylase by IGF-I was limited to developing animals, IGF-I was also injected intraventricularly into the lateral ventricles of adult Sprague-Dawley rats. After 6 hours, the brains were removed, dissected into several regions (cerebral cortex, medial septum, and hippocampus), and then assayed for ornithine decarboxylase activity as described in Example 4.

[4] = system: cultured rat cortical cells; experiment: [3H]-leucine incorporation in cultured rat cortical cells; type: cell-based; conditions: low density 24 hour mixed cortical cultures
Procedure: The ability of IGF-I and a synthetic derivative of IGF-II (IGF-II(54-67)) to increase the incorporation of [^3H]-leucine and to promote the survival of neurite bearing cells was examined in cultured rat cortical cells (the numbers “54-67” in IGF-II indicate the fragment includes amino acid residues 54-67 of native IGF-II).
Measurements were performed, using standard techniques known to those skilled in the art, on dissociated cortical cells obtained from day 18-19 embryonic rats. Cells were seeded at 1.5×10^4/cm^2 on poly-1-ornithine-laminin coated plastic tissue culture cells in serum-free N2 medium (Bottenstein et al. Proc. Natl. Acad. Sci. U.S.A. 76: 514-517 (1978)). [^3H]-leucine was added to cells at plating for the incorporation assay. Cultures were terminated 24 hours after plating and measured for either [^3H]-leucine incorporation or for the number of neuritic cells by microscopic examination.

[5] = system: septal cultures; experiment: Number of AChE positive cells in rat septal cultures; type: cell-based; conditions: 100 nM IGF-I; 4×10^5 cells/cm^2, medium with 10% bovine calf serum
Procedure: (§1) Dissociated cell cultures of the septal region of day 17 embryonic rats were prepared by standard techniques known to those skilled in the art, using enzymatic (Dispase, Collaborative Research) dissociation of tissue. Cells were seeded (plated) at 6×10^5 cells/cm^2 in poly-1-ornithine-laminin coated plastic tissue culture wells, and cultured in serum-free N2 medium (Bottenstein et al., 1978) for 5 days without feeding. Control (uninduced) cultures received no added growth factors; induced cultures received the concentrations of IGF-I and NGF indicated in FIGS. 9 and 10 at the time of plating. NGF is commercially available. ChAT was assayed by the method described in McManaman, et al. Dev. Biol. 125:311-320 (1988). AChE staining was performed according to the method of Hartikka and Hefti, J. Neuroscience 8:2967-2985 (1988).
We have shown that under specific culture conditions (4×10^5 cells/cm^2 in the presence of medium containing 10% bovine calf serum), IGF-I increased the number of AChE positive cells by 3-4 fold over control, growth factor-free cultures, FIG. 12.

[6] = system: 14.5 day embryonic rat spinal cord neurons; experiment: Choline acetyltransferase activity in 14.5 day embryonic rat spinal cord neurons, serum-free; type: cell-based; conditions: serum-free and insulin-free N2 medium, 48 hr
Procedure: The activity of IGF-I, IGF-II and IGF-III was assayed on dissociated cultures of 14.5 day embryonic rat spinal cord neurons. The spinal cords were removed from embryos and dissociated in 0.05% trypsin in Dulbecco's Phosphate Buffered Saline (DPBS). Dissociated cells were seeded onto poly-1-ornithine substrates in 96 well microtiter plates at 2×10^5 cells/well in 200 μl of serum-free and insulin-free N2 medium (Bottenstein and Sato, 1979 supra) containing 0.05% bovine serum albumin. After a 48 hr incubation at 37° C. in a humidified atmosphere of 5% CO2, 95% air, cultures were assayed for choline acetyltransferase activity according to a modification (McMananman et al., Dev. Bio., 25:311-320 (1988)) of the technique described by Fonnum (Fonnum, J. Neurochem. 24:405-409 (1975)).

[7] = system: cultured rat septal cells; experiment: ChAT activity in cultured rat septal cells; type: cell-based
Procedure: The effect of simultaneous administration of IGF-I and NGF on ChAT activity was assayed in cultured septal neurons. ChAT is the initial enzyme in the synthesis of the neurotransmitter, acetylcholine, and is a specific biochemical marker for cholinergic neurons. Assay of this enzyme may be used as an indication of the effects of IGF (and other factors) on the survival of cholinergic neurons and/or regulation of this enzyme. […] In FIG. 9 open squares represent IGF-I, diamonds indicate IGF-I+2 nM NGF, open circles indicate 2 nM NGF, and the horizontal line at 403 DPM represents uninduced cells. A similar additive effect was seen when saturating concentrations of IGF-I were combined with saturating or sub-maximal concentrations of NGF, as shown in FIG. 10. In FIG. 10 open squares indicate NGF, diamonds indicate NGF+25 nM IGF-I, open circles represent 25 nM IGF-I, and the horizontal line at 554 DPM represents uninduced cells.
Cultured rat septal cell experiments were performed generally as described in Hartikku and Hefti, J. Neuroscience, 8:2967-2985 […], Hayashi and Patel, Dev. Brain Res., 36:109-120 (1987), and as follows.
as §1

“GPETLCGAELVDALQFVCGDRGFYFNKPTGYGSSS-RRAPQTGIVDECCFRSCDLRRLEMYCAPLKPAKSA [IGF-I]” was tested, and the “PERCENT MAX. BOUND” value ([1]; peptide 10 pM, 20 pM 125I-[Thr59]IGF-I) was 100%, the “PERCENT MAX. BOUND” value ([1]; peptide 40 nM) was 9.6% and the “displacement of 125I-[Threonine59]IGF-I (in words)” value ([1]; rat brain homogenate) was “potent displacers”. For the same substance, the “choline acetyltransferase activity (in words)” value [2] was “substantial, dose-dependent increase in choline acetyltransferase activity”, the “ornithine decarboxylase activity (in words)” value [3] was “stimulated ornithine decarboxylase activity in all brain regions assayed” and the “[3H]-leucine incorporation (in words)” value [4] was “increased [^3H]-leucine incorporation”. For the same substance, the “increase in number of AChE positive cells over control” value [5] was 3-4 fold, the “choline acetyltransferase activity (in words)” value [6] was “substantial, dose-dependent increase in choline acetyltransferase activity” and the “ChAT activity % increase over control” value ([7]; concentration not printed (second part of table)) was 44%. The “ChAT activity % increase over control” value ([7]; single growth factor 1.3 nM) was 20%, the “ChAT activity % increase over control” value ([7]; single growth factor 12.5 nM) was 50% and the “ChAT activity % increase over control” value ([7]; single growth factor 25.0 nM) was 37%.
